Assay results: the Human Domainome abundance scans (Beltran et al. 2025)
± gives the uncertainty stated by the source.

B1: POU domain, class 3, transcription factor 2, residues 262 to 338; numbered along this chain, P20265 (parent)
chain: EDTPTSDDLEQFAKQFKQRRIKLGFTQADVGLALGTLYGNVFSQTTICRFEALQLSFKNMCKLKPLLNKWLEEADSS

Variants of: B1
Assay: abundance fitness (aPCA) (normalised: wild type 0, dead -1); higher = more abundant; growth selection in yeast, the domain comes from the species named
Details: Homo sapiens

Variant	abundance fitness
EDTPTSDDLEQFAKQFKQRRIKLGFTQADVGLALGTLYGNVFSQTTICRFEALQLSFKNMPKLKPLLNKWLEEADSS [C61P]	-0.779 ± 0.086
EDTPTSDDLEQFAKQFKQRRIKLGFTQADVGLALGTLYGNVFSQTTICRFEALQLSFKNMSKLKPLLNKWLEEADSS [C61S]	-0.165 ± 0.034
EDTPTSDDLEQFAKQFKQRRIKLGFTQADVGLALGTLYGNVFSQTTICRFEALQLSFKNMNKLKPLLNKWLEEADSS [C61N]	-0.107 ± 0.075
EDTPTSDDLEQFAKQFKQRRIKLGFTQADVGLALGTLYGNVFSQTTICRFEALQLSFKNMAKLKPLLNKWLEEADSS [C61A]	-0.101 ± 0.031
EDTPTSDDLEQFAKQFKQRRIKLGFTQADVGLALGTLYGNVFSQTTICRFEALQLSFKNMFKLKPLLNKWLEEADSS [C61F]	-0.274 ± 0.053
EDTPTSDDLEQFAKQFKQRRIKLGFTQADVGLALGTLYGNVFSQTTICRFEALQLSFKNMRKLKPLLNKWLEEADSS [C61R]	-0.025 ± 0.028
EDTPTSDDLEQFAKQFKQRRIKLGFTQADVGLALGTLYGNVFSQTTICRFEALQLSFKNMDKLKPLLNKWLEEADSS [C61D]	-0.291 ± 0.075
EDTPTSDDLEQFAKQFKQRRIKLGFTQADVGLALGTLYGNVFSQTTICRFEALQLSFKNMQKLKPLLNKWLEEADSS [C61Q]	-0.112 ± 0.048
EDTPTSDDLEQFAKQFKQRRIKLGFTQADVGLALGTLYGNVFSQTTICRFEALQLSFKNMMKLKPLLNKWLEEADSS [C61M]	-0.088 ± 0.037
EDTPTSDDLEQFAKQFKQRRIKLGFTQADVGLALGTLYGNVFSQTTICRFEALQLSFKNMVKLKPLLNKWLEEADSS [C61V]	-0.035 ± 0.03
EDTPTSDDLEQFAKQFKQRRIKLGFTQADVGLALGTLYGNVFSQTTICRFEALQLSFKNMKKLKPLLNKWLEEADSS [C61K]	-0.056 ± 0.053
EDTPTSDDLEQFAKQFKQRRIKLGFTQADVGLALGTLYGNVFSQTTICRFEALQLSFKNMWKLKPLLNKWLEEADSS [C61W]	-0.158 ± 0.03
EDTPTSDDLEQFAKQFKQRRIKLGFTQADVGLALGTLYGNVFSQTTICRFEALQLSFKNMGKLKPLLNKWLEEADSS [C61G]	-0.278 ± 0.027
EDTPTSDDLEQFAKQFKQRRIKLGFTQADVGLALGTLYGNVFSQTTICRFEALQLSFKNMYKLKPLLNKWLEEADSS [C61Y]	-0.252 ± 0.077
EDTPTSDDLEQFAKQFKQRRIKLGFTQADVGLALGTLYGNVFSQTTICRFEALQLSFKNMTKLKPLLNKWLEEADSS [C61T]	-0.182 ± 0.045
EDTPTSDDLEQFAKQFKQRRIKLGFTQADVGLALGTLYGNVFSQTTICRFEALQLSFKNMLKLKPLLNKWLEEADSS [C61L]	-0.001 ± 0.029
EDTPTSDDLEQFAKQFKQRRIKLGFTQADVGLALGTLYGNVFSQTTICRFEALQLSFKNMEKLKPLLNKWLEEADSS [C61E]	-0.147 ± 0.037
EDTPTSDDLEQFAKQFKQRRIKLGFTQADVGLALGTLYGNVFSQTTICRFEALQLSFKYMCKLKPLLNKWLEEADSS [N59Y]	-0.103 ± 0.068
EDTPTSDDLEQFAKQFKQRRIKLGFTQADVGLALGTLYGNVFSQTTICRFEALQLSFKNMCMLKPLLNKWLEEADSS [K62M]	0.02 ± 0.048
EDTPTSDDLEQFAKQFKQRRIKLGFTQADVGLALGTLYGNVFSQTTICRFEALQLSFKNMCVLKPLLNKWLEEADSS [K62V]	-0.089 ± 0.031
EDTPTSDDLEQFAKQFKQRRIKLGFTQADVGLALGTLYGNVFSQTTICRFEALQLSFKNMCFLKPLLNKWLEEADSS [K62F]	-0.126 ± 0.086
EDTPTSDDLEQFAKQFKQRRIKLGFTQADVGLALGTLYGNVFSQTTICRFEALQLSFKNMCLLKPLLNKWLEEADSS [K62L]	-0.007 ± 0.036
EDTPTSDDLEQFAKQFKQRRIKLGFTQADVGLALGTLYGNVFSQTTICRFEALQLSFKNMCWLKPLLNKWLEEADSS [K62W]	-0.172 ± 0.038
EDTPTSDDLEQFAKQFKQRRIKLGFTQADVGLALGTLYGNVFSQTTICRFEALQLSFKNMCGLKPLLNKWLEEADSS [K62G]	-0.189 ± 0.027

Variant	abundance fitness
EDTPTSDDLEQFAKQFKQRRIKLGFTQADVGLALGTLYGNVFSQTTICRFEALQLSFKNMCHLKPLLNKWLEEADSS [K62H]	-0.156 ± 0.06
EDTPTSDDLEQFAKQFKQRRIKLGFTQADVGLALGTLYGNVFSQTTICRFEALQLSFKNMCPLKPLLNKWLEEADSS [K62P]	-0.99 ± 0.15
EDTPTSDDLEQFAKQFKQRRIKLGFTQADVGLALGTLYGNVFSQTTICRFEALQLSFKNMCCLKPLLNKWLEEADSS [K62C]	-0.25 ± 0.053
EDTPTSDDLEQFAKQFKQRRIKLGFTQADVGLALGTLYGNVFSQTTICRFEALQLSFKNMCILKPLLNKWLEEADSS [K62I]	-0.045 ± 0.077
EDTPTSDDLEQFAKQFKQRRIKLGFTQADVGLALGTLYGNVFSQTTICRFEALQLSFKNMCTLKPLLNKWLEEADSS [K62T]	-0.059 ± 0.039
EDTPTSDDLEQFAKQFKQRRIKLGFTQADVGLALGTLYGNVFSQTTICRFEALQLSFKNMCALKPLLNKWLEEADSS [K62A]	-0.033 ± 0.032
EDTPTSDDLEQFAKQFKQRRIKLGFTQADVGLALGTLYGNVFSQTTICRFEALQLSFKNMCSLKPLLNKWLEEADSS [K62S]	-0.055 ± 0.032
EDTPTSDDLEQFAKQFKQRRIKLGFTQADVGLALGTLYGNVFSQTTICRFEALQLSFKNMCYLKPLLNKWLEEADSS [K62Y]	-0.263 ± 0.07
EDTPTSDDLEQFAKQFKQRRIKLGFTQADVGLALGTLYGNVFSQTTICRFEALQLSFKNMCELKPLLNKWLEEADSS [K62E]	0.006 ± 0.038
EDTPTSDDLEQFAKQFKQRRIKLGFTQADVGLALGTLYGNVFSQTTICRFEALQLSFKNMCDLKPLLNKWLEEADSS [K62D]	-0.045 ± 0.053
EDTPTSDDLEQFAKQFKQRRIKLGFTQADVGLALGTLYGNVFSQTTICRFEALQLSFKNMCNLKPLLNKWLEEADSS [K62N]	-0.151 ± 0.068
EDTPTSDDLEQFAKQFKQRRIKLGFTQADVGLALGTLYGNVFSQTTICRFEALQLSFKNMCKWKPLLNKWLEEADSS [L63W]	-0.489 ± 0.037
EDTPTSDDLEQFAKQFKQRRIKLGFTQADVGLALGTLYGNVFSQTTICRFEALQLSFKNMCKQKPLLNKWLEEADSS [L63Q]	-1.03 ± 0.18
EDTPTSDDLEQFAKQFKQRRIKLGFTQADVGLALGTLYGNVFSQTTICRFEALQLSFKNMCKRKPLLNKWLEEADSS [L63R]	-0.794 ± 0.048
EDTPTSDDLEQFAKQFKQRRIKLGFTQADVGLALGTLYGNVFSQTTICRFEALQLSFKNMCKDKPLLNKWLEEADSS [L63D]	-0.785 ± 0.11
EDTPTSDDLEQFAKQFKQRRIKLGFTQADVGLALGTLYGNVFSQTTICRFEALQLSFKNMCKCKPLLNKWLEEADSS [L63C]	-0.399 ± 0.05
EDTPTSDDLEQFAKQFKQRRIKLGFTQADVGLALGTLYGNVFSQTTICRFEALQLSFKNMCKHKPLLNKWLEEADSS [L63H]	-0.451 ± 0.11
EDTPTSDDLEQFAKQFKQRRIKLGFTQADVGLALGTLYGNVFSQTTICRFEALQLSFKNMCKEKPLLNKWLEEADSS [L63E]	-0.803 ± 0.09
EDTPTSDDLEQFAKQFKQRRIKLGFTQADVGLALGTLYGNVFSQTTICRFEALQLSFKNMCKMKPLLNKWLEEADSS [L63M]	0.004 ± 0.045
EDTPTSDDLEQFAKQFKQRRIKLGFTQADVGLALGTLYGNVFSQTTICRFEALQLSFKNMCKGKPLLNKWLEEADSS [L63G]	-0.796 ± 0.041
EDTPTSDDLEQFAKQFKQRRIKLGFTQADVGLALGTLYGNVFSQTTICRFEALQLSFKNMCKTKPLLNKWLEEADSS [L63T]	-0.524 ± 0.061
EDTPTSDDLEQFAKQFKQRRIKLGFTQADVGLALGTLYGNVFSQTTICRFEALQLSFKNMCKSKPLLNKWLEEADSS [L63S]	-0.668 ± 0.059
EDTPTSDDLEQFAKQFKQRRIKLGFTQADVGLALGTLYGNVFSQTTICRFEALQLSFKNMCKFKPLLNKWLEEADSS [L63F]	-0.347 ± 0.082
EDTPTSDDLEQFAKQFKQRRIKLGFTQADVGLALGTLYGNVFSQTTICRFEALQLSFKNMCKKKPLLNKWLEEADSS [L63K]	-0.749 ± 0.14

Variant	abundance fitness
EDTPTSDDLEQFAKQFKQRRIKLGFTQADVGLALGTLYGNVFSQTTICRFEALQLSFKNMCKIKPLLNKWLEEADSS [L63I]	-0.148 ± 0.073
EDTPTSDDLEQFAKQFKQRRIKLGFTQADVGLALGTLYGNVFSQTTICRFEALQLSFKNMCKVKPLLNKWLEEADSS [L63V]	-0.263 ± 0.029
EDTPTSDDLEQFAKQFKQRRIKLGFTQADVGLALGTLYGNVFSQTTICRFEALQLSFKNMCKAKPLLNKWLEEADSS [L63A]	-0.665 ± 0.051
EDTPTSDDLEQFAKQFKQRRIKLGFTQADVGLALGTLYGNVFSQTTICRFEALQLSFKNQCKLKPLLNKWLEEADSS [M60Q]	-0.546 ± 0.095
EDTPTSDDLEQFAKQFKQRRIKLGFTQADVGLALGTLYGNVFSQTTICRFEALQLSFKNSCKLKPLLNKWLEEADSS [M60S]	-0.377 ± 0.055
EDTPTSDDLEQFAKQFKQRRIKLGFTQADVGLALGTLYGNVFSQTTICRFEALQLSFKNTCKLKPLLNKWLEEADSS [M60T]	-0.337 ± 0.054
EDTPTSDDLEQFAKQFKQRRIKLGFTQADVGLALGTLYGNVFSQTTICRFEALQLSFKNNCKLKPLLNKWLEEADSS [M60N]	-0.561 ± 0.33
EDTPTSDDLEQFAKQFKQRRIKLGFTQADVGLALGTLYGNVFSQTTICRFEALQLSFKNYCKLKPLLNKWLEEADSS [M60Y]	-0.624 ± 0.15
EDTPTSDDLEQFAKQFKQRRIKLGFTQADVGLALGTLYGNVFSQTTICRFEALQLSFKNWCKLKPLLNKWLEEADSS [M60W]	-0.625 ± 0.071
EDTPTSDDLEQFAKQFKQRRIKLGFTQADVGLALGTLYGNVFSQTTICRFEALQLSFKNRCKLKPLLNKWLEEADSS [M60R]	-0.706 ± 0.047
EDTPTSDDLEQFAKQFKQRRIKLGFTQADVGLALGTLYGNVFSQTTICRFEALQLSFKNFCKLKPLLNKWLEEADSS [M60F]	-0.373 ± 0.13
EDTPTSDDLEQFAKQFKQRRIKLGFTQADVGLALGTLYGNVFSQTTICRFEALQLSFKNICKLKPLLNKWLEEADSS [M60I]	-0.907 ± 0.29
EDTPTSDDLEQFAKQFKQRRIKLGFTQADVGLALGTLYGNVFSQTTICRFEALQLSFKNKCKLKPLLNKWLEEADSS [M60K]	-0.97 ± 0.18
EDTPTSDDLEQFAKQFKQRRIKLGFTQADVGLALGTLYGNVFSQTTICRFEALQLSFKNGCKLKPLLNKWLEEADSS [M60G]	-0.543 ± 0.035
EDTPTSDDLEQFAKQFKQRRIKLGFTQADVGLALGTLYGNVFSQTTICRFEALQLSFKNCCKLKPLLNKWLEEADSS [M60C]	-0.386 ± 0.074
EDTPTSDDLEQFAKQFKQRRIKLGFTQADVGLALGTLYGNVFSQTTICRFEALQLSFKNACKLKPLLNKWLEEADSS [M60A]	-0.168 ± 0.035
EDTPTSDDLEQFAKQFKQRRIKLGFTQADVGLALGTLYGNVFSQTTICRFEALQLSFKNHCKLKPLLNKWLEEADSS [M60H]	-0.367 ± 0.17
EDTPTSDDLEQFAKQFKQRRIKLGFTQADVGLALGTLYGNVFSQTTICRFEALQLSFKNVCKLKPLLNKWLEEADSS [M60V]	-0.553 ± 0.043
EDTPTSDDLEQFAKQFKQRRIKLGFTQADVGLALGTLYGNVFSQTTICRFEALQLSFKNLCKLKPLLNKWLEEADSS [M60L]	-0.282 ± 0.039
EDTPTSDDLEQFAKQFKQRRIKLGFTQADVGLALGTLYGNVFSQTTICRFEALQLSFKNECKLKPLLNKWLEEADSS [M60E]	-0.848 ± 0.079
EDTPTSDDLEQFAKQFKQRRIKLGFTQADVGLALGTLYGNVFSQTTICRFEALQLSFKNDCKLKPLLNKWLEEADSS [M60D]	-0.961 ± 0.2
EDTPTSDDLEQFAKQFKQRRIKLGFTQADVGLALGTLYGNVFSQTTICRFEALQLSFKNMCKLAPLLNKWLEEADSS [K64A]	-0.06 ± 0.035
EDTPTSDDLEQFAKQFKQRRIKLGFTQADVGLALGTLYGNVFSQTTICRFEALQLSFKNMCKLDPLLNKWLEEADSS [K64D]	-1.06 ± 0.23
